Data taken from US8221773B2, “Hydrogels and uses thereof” (University of Delaware, priority 2004, dated 2012).
Where no end group is shown, it is not given here.

What was measured:
Type in all cases: physicochemical
[1] = CD spectroscopy of peptide folding (random coil vs β-sheet)
Method: Time-dependent circular dichroism (CD) studies support a hydrogelation mechanism consistent with intramolecular hairpin formation followed by self-assembly. […] At temperatures >25° C. the folding and self-assembly of MAX1 occurs on the order of seconds. […] This behavior is consistent across all spectro- and microscopic methods used to interrogate MAX1. For example, at micromolar concentrations used for the CD studies shown in FIGS. 4A and 4B, self-assembly takes hours at 20° C. At millimolar concentrations, such as those used in the rheological studies described below, self-assembly leading to hydrogel takes minutes at 20° C.
The reversibility of the folding and self-assembly process was investigated by measuring θ216 as a function of pH and time as shown in FIG. 4C. CD of a stirred solution of MAX1 at pH 5.5 indicates random coil conformation. Adjusting the pH to 9.0 by the addition of NaOH results in β-sheet formation as expected. However, subsequent adjustment of the pH to 6.0 results in complete loss of sheet signal and full recovery of random coil signal. […] Again, this reversible behavior is not observed in hydrogels formed from amyloid/prion-like fibrils.
In some embodiments of the invention, various functionalities (e.g., cell adhesion epitopes, receptor agonists, receptor antagonists, ligands, small molecules, etc) may be incorporated into the hairpin hydrogel scaffold. One way to accomplish this would be to functionalize one or more amino acid side chains of the peptide. […] In some embodiments, the moieties to be incorporated at a particular side chain may be much larger (e.g. RGD-based motifs) and may contain charged residues. MAX5 (VKVKVKVKV^DPPTKVKEKVKV-NH2) was prepared to investigate the possibility of incorporating a charged residue on the hydrophobic face of MAX1. The sequence contains a glutamic acid residue at position 16 which is negatively charged at basic pH where MAX1 normally folds and assembles. […] However, alterations to the hydrophilic face of MAX1 are well tolerated. Sequences in which one or two lysine residues are replaced with other residues such as cysteine, serine, and glutamic acid are capable of folding and self-assembly into rigid hydrogels (data not shown).
The peptides described above contain identical turn sequences, namely (-V^DPPT-). This sequence has a strong propensity to form a type II′ turn and therefore helps to drive intramolecular folding. Since intramolecular folding must occur prior to self-assembly, alterations to this turn sequence that inhibit turn structure formation can be used to modulate intramolecular folding and self-assembly leading to hydrogelation. MAX9 was prepared to probe the importance of the turn region (VKVKVKVKV^LPPTKVKVKVKV-NH2). […]

[2] = Hydrogelation by folding and self-assembly; conditions: pH 9, heating/cooling cycles
Method: The ability of MAX1 to undergo hydrogelation is dependent upon its unimolecular folded state. Under basic aqueous solution conditions (pH 9.0, 125 mM Borate, 10 mM NaCl), where some of the lysine side chains of MAX1 are neutral, this peptide intramolecularly folds into an amphiphilic β-hairpin (folding can also be triggered at pH 7 under physiological conditions). One face of the hairpin is lined with hydrophobic valine residues while the other face is lined with hydrophilic lysine residues, FIGS. 2 and 3A. After intramolecular folding, subsequent self-assembly of hairpins is facilitated (a) laterally via H-bond formation and attractive hydrophobic interactions between distinct hairpins as well as (b) facially by hydrophobic association of the valine-rich faces of the folded peptide resulting in hydrogelation, FIG. 3B. Since the charged state of the lysine residues are controlled by pH, the unimolecular folding is reversible. Lowering the pH below the intrinsic pKa of the lysine side chains results in intra-strand charge repulsion from neighboring lysines and subsequent unfolding of individual hairpins, ultimately dissolving the self-assembled hydrogel structure. This reversible behavior is unique when compared to β-sheet-rich hydrogels prepared from classical fibril-based designs. In these systems, the self-assembly process is irreversible.
There are reports of large polymers that are thermally responsive. The present invention provides the first system that employs temperature triggered folding to induce self-assembly. […] Heating the solution to 80° C. results in a spectra consistent with β-sheet structure. […] The temperatures used in both CD and rheology bracket the temperature (Tgel=60° C., FIG. 9) at which folding and consequent self-assembly is triggered. […] For example, free flowing peptide solutions could be prepared at room temperature and administered in vivo where the temperature of the body could induce gelation. Some Poly-N-isopropylacrylamide polymers have been engineered have been engineered to undergo such transitions ultimately affording extracellular-like scaffolds for tissue regeneration. The above studies support the idea that the formation of hydrophobic interactions are important. MAX1-3 all contain valines and threonines at hydrogen bonded positions. At these positions, their side chains prefer to adopt a trans rotamer. As a result, hydrophobic residues that oppose each other across the hairpin point their side chains in opposite directions thus making the formation of intramolecular hydrophobic interactions across the strands difficult, FIG. 11A. However, these side chains are nicely positioned to interact laterally with the hydrophobic side chains of neighboring hairpins in the self-assembled state, FIG. 11B. Forming these lateral hydrophobic interactions should favor self-assembly. […] In MAX4, opposing valine side chains are expected to point towards each other, FIG. 11B. Thus, the valine side chains of MAX4 are less likely than those in MAX1 to form lateral intermolecular hydrophobic interactions. If the formation of lateral intermolecular hydrophobic interactions is of more importance for self-assembly than intramolecular hydrophobic contacts, then the rate of self-assembly should be faster for MAX1 than for MAX4. This difference in rate should be evident in the rate of storage moduli (rigidity) increase. […] (Tgel=20° C. for both peptides). […]

[3] = Oscillatory rheology of peptide hydrogels (storage and loss moduli); conditions: 2 wt %, pH 9, 20° C, 6 Hz, 1% strain

Sequence: VKVKVKVK V^DPPT KVKVKVKV-NH2 (not fully specified (C-terminus)) [MAX1]
- time to plateau of β-sheet formation (ellipticity at 218 nm) ([1]; 2.0 wt %, pH 7.4, 150 mM KF, 37° C): 15 min
- reversibility of folding and self-assembly with pH ([1]; stirred 300 μM solution, pH 5.5 to 9.0 to 6.0, 20° C): reversible
- reversibility of thermally induced hydrogelation [2]: not reversible
- gel storage modulus after 30 minutes [3]: ~600 Pa
